{"source": "patent US20180057581A1", "about": "(MorphoSys, published 2018)", "key": {"GM-CSF": {"molecular_target": "GM-CSF (Homo sapiens (Human), UniProt P04141 18-144)", "sequence (P04141 18-144 limits assumed)": "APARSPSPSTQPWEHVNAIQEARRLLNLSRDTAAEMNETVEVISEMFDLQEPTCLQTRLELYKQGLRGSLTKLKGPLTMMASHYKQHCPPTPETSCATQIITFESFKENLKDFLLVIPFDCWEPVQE", "assay": "not described (Table 12, criterion Binding)"}, "Cytokine 2 (human)": {"molecular_target": "Cytokine 2 (human) (human)", "assay": "MSD specificity profiling, coated protein, Camille at 10 nM", "description": "(§1) For this specificity profiling test the different proteins and controls were coated on two 384-well MSD plates with a concentration of 1 μg/ml at 4° C. over night. Plates were blocked with BSA and washed three times with PBS with 0.05% (v/v) Tween 20. Antibody samples were diluted to 100 nM and 10 nM in assay buffer (PBS with 0.5% (w/v) BSA, 0.05% (v/v) Tween 20). […] Samples and controls were incubated for three hours at room temperature. The plates were washed three times and 30 μl detection antibody (ECL-labeled anti-human Fab) were added per well and incubated for 1 h. After washing, MSD Read Buffer T with surfactant was added and electrochemiluminescence signals were detected using a Sector Imager 6000 (Meso Scale Discovery, Gaithersburg, Md., USA)."}, "[1]": {"molecular_target": "Cell surface receptor 2 (human) (human)", "assay": "MSD specificity profiling, coated protein, Camille at 10 nM", "description": "as §1"}, "[2]": {"molecular_target": "Anti-human Fc (Dianova, #109-005-098)", "assay": "MSD specificity profiling, coated protein, Camille at 10 nM", "description": "as §1"}, "Cytochrome c (cow)": {"molecular_target": "Cytochrome c (cow) (cow, UniProt P62894 2-105)", "sequence (P62894 2-105 limits assumed)": "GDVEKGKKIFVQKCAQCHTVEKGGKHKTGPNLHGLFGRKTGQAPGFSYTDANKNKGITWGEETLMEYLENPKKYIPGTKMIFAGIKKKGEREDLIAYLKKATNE", "assay": "MSD specificity profiling, coated protein, Camille at 10 nM", "description": "as §1"}, "[3]": {"molecular_target": "Cell surface receptor 3 (human) (human)", "assay": "MSD specificity profiling, coated protein, Camille at 10 nM", "description": "as §1"}, "Myoglobin (horse)": {"molecular_target": "Myoglobin (horse) (horse, UniProt P68082 2-154)", "sequence (P68082 2-154 limits assumed)": "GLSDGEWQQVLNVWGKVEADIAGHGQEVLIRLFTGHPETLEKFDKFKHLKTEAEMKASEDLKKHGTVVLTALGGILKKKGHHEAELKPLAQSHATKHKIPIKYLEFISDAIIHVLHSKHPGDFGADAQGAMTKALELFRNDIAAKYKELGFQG", "assay": "MSD specificity profiling, coated protein, Camille at 10 nM", "description": "as §1"}, "Lysozyme (chicken)": {"molecular_target": "Lysozyme (chicken) (chicken, UniProt P00698 19-147)", "sequence (P00698 19-147)": "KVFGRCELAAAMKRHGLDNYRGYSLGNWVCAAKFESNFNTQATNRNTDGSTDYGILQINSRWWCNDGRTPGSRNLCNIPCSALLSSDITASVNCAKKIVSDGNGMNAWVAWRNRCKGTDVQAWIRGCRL", "assay": "MSD specificity profiling, coated protein, Camille at 10 nM", "description": "as §1"}, "RNase A (cow)": {"molecular_target": "T1, RNase A (cow) (cow, UniProt P61823 27-150)", "T1 sequence (looked up)": "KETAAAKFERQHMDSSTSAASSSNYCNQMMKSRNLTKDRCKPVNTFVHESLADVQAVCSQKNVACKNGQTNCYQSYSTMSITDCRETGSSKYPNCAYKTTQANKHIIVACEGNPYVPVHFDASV", "assay": "MSD specificity profiling, coated protein, Camille at 10 nM", "description": "as §1"}, "Antitrypsin (human)": {"molecular_target": "Antitrypsin (human) (human, UniProt P01009 25-418)", "sequence (P01009 25-418 limits assumed)": "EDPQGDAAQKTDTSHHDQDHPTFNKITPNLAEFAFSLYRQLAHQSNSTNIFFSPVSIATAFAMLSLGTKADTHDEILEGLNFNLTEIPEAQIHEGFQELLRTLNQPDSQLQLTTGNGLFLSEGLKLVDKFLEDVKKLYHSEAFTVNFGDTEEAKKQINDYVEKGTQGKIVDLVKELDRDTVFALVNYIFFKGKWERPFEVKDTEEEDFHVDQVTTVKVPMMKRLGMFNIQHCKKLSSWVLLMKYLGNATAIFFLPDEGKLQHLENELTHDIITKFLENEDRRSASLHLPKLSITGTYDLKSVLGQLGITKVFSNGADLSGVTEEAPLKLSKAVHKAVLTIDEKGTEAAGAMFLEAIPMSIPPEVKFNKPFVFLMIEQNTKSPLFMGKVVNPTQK", "assay": "MSD specificity profiling, coated protein, Camille at 10 nM", "description": "as §1"}, "[4]": {"molecular_target": "T2, Recombinant cynomolgus monkey sgM-CSF (cynomolgus (Macaca fascicularis), UniProt P09603 33-255 (human entry), limits assumed)", "T2 construct": "used also where only 'cynomolgus M-CSF' is printed (ELISA result, SET); also called cynomolgus sgM-CSF; cyno sgM-CSF", "T2 chain": "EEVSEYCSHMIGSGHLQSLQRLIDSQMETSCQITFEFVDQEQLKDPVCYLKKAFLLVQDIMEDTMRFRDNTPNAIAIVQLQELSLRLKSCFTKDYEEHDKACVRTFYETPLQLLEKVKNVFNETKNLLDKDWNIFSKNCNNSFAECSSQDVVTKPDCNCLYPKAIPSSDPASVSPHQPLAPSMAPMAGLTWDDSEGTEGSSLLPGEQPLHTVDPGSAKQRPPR", "assay": "ELISA", "description": "(§2) BSA was used as a negative control substrate.\n(§3) After blocking of plates with 5% skim milk powder in PBS, Fab-containing E. coli lysates, IgG-containing cell culture supernatants or purified IgG or Fab proteins were added. Binding of Fabs or IgGs was detected by F(ab)₂ specific goat anti-human IgG conjugated to alkaline phosphatase (Dianova Cat# 109-055-097; diluted 1:5000) using Attophos fluorescence substrate (Roche, #11681982001). Fluorescence emission at 535 nm was recorded with excitation at 430 nm."}, "human M-CSF": {"molecular_target": "T3, human M-CSF (human, UniProt P09603 33-255, limits assumed)", "T3 construct": "also called M-CSF (human); CSF-1", "T3 sequence": "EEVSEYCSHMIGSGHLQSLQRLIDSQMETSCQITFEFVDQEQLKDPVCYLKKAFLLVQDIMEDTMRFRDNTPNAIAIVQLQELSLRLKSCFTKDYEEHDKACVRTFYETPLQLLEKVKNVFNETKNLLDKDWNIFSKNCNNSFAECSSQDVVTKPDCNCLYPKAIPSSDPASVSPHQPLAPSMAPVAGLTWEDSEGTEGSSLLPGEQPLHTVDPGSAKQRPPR", "assay": "ELISA", "description": "as §2, §3"}}, "data": [{"binder": "Camille (format not stated) (antibody, V domains shown, also called Antibody Camille) VH: QVQLQQSGPGLVKPSQTLSLTCAISGESVSTSSAAWNWIRQSPSRGLEWLGRTYYRSKWKHEYAVSVKSRITINPDTSKNQFSLQLNSVTPEDTAVYYCARDRYYYSAFDYWGQGTLVTVSS VL: QSALTQPASVSGSPGQSITISCTGTSSDVGGYNSVSWYQQHPGKAPKLLIYAVSNRPSGVSNRFSGSKSGNTASLTISGLQAEDEADYYCASYDERFTRVFGGGTKLTVLG", "values": [{"measurement": "binding result", "setting": "GM-CSF", "value": "no binding"}, {"measurement": "signal normalized to reference antibody MOR03207", "setting": "Cytokine 2 (human)", "value": 1, "unit": "ratio"}, {"measurement": "signal normalized to reference antibody MOR03207", "setting": "[1]", "value": 1, "unit": "ratio"}, {"measurement": "signal normalized to reference antibody MOR03207", "setting": "[2]", "value": 1, "unit": "ratio"}, {"measurement": "signal normalized to reference antibody MOR03207", "setting": "Cytochrome c (cow)", "value": 1, "unit": "ratio"}, {"measurement": "signal normalized to reference antibody MOR03207", "setting": "[3]", "value": 1, "unit": "ratio"}, {"measurement": "signal normalized to reference antibody MOR03207", "setting": "Myoglobin (horse)", "value": 1, "unit": "ratio"}, {"measurement": "signal normalized to reference antibody MOR03207", "setting": "Lysozyme (chicken)", "value": 0, "unit": "ratio"}, {"measurement": "signal normalized to reference antibody MOR03207", "setting": "RNase A (cow)", "value": 1, "unit": "ratio"}, {"measurement": "signal normalized to reference antibody MOR03207", "setting": "Antitrypsin (human)", "value": 1, "unit": "ratio"}, {"measurement": "ELISA fluorescence units", "setting": "[4]", "value": "> 35000", "unit": "units"}, {"measurement": "ELISA fluorescence units", "setting": "human M-CSF", "value": "> 35000", "unit": "units"}]}]}
